Data on one molecule can be found in publication PMC6077200.

The target in this assay is nicotinic acetylcholine receptors containing subunits α7, α9 and α10 of monocytic U937 cells (human (endogenous in U937)) (UniProt P36544).

B1: purified human endogenous C-reactive protein (natural protein)
chain: QTDMSRKAFVFPKESDTSYVSLKAPLTKPLKAFTVCLHFYTELSSTRGYSIFSYATKRQDNEILIFWSKDIGYSFTVGGSEILFEVPEVTVAPVHICTSWESASGIVEFWVDGKPRVRKSLKKGYTVGAEASIILGQEQDSFGGNFEGSQSLVGDIGNVNMWDFVLSPDEINTIYLGGPFSPNVLNWRALKYEVQGEVFTKPQLWP
B1: the IC50 of eCRP for inhibition of BzATP-induced (100 µM) IL-1β release from LPS-primed U937 cells (the paper says this corresponds to about 40 nM pentameric CRP) was 4.9 µg/mL.
